The supplement of paper PMC5998384

Legend:
[1] = test system: HeLa Kyoto; test: solubility in G1/S (NP-40 vs SDS abundance) (log2 ratio); higher = more soluble; details: cell cycle stage: G1/S
[2] = test system: HeLa Kyoto; test: melting temperature (median over replicates), in situ; higher = more thermally stable
[3] = test system: HeLa Kyoto; test: solubility change mitosis vs G1/S (difference of NP-40 vs SDS log2 ratios) (log2 ratio difference); higher = more soluble in mitosis
[4] = test system: HeLa Kyoto; test: thermal stability score vs G1/S (z-score of summed log2 fold changes over temperatures); higher = more thermally stable than in G1/S
[5] = cell cycle stage: early G1 (4.5 h after nocodazole release)
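Throughout, for melting temperature (median over replicates), in situ: HeLa Kyoto cells synchronized by double thymidine or nocodazole block, proteins quantified by TMT10plex mass spectrometry, three independent biological replicates.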
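Throughout, for solubility change mitosis vs G1/S (difference of NP-40 vs SDS log2 ratios): synchronized HeLa Kyoto cells (double thymidine block for G1/S, nocodazole release for mitosis), protein amounts in NP-40 versus SDS lysates quantified by mass spectrometry, three biological replicates.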
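Throughout, for solubility in G1/S (NP-40 vs SDS abundance): HeLa Kyoto cells arrested at G1/S by double thymidine block, proteins quantified by TMT10plex mass spectrometry in mild NP-40 versus SDS extracts, three biological replicates.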
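Throughout, for thermal stability score vs G1/S (z-score of summed log2 fold changes over temperatures): synchronized HeLa Kyoto cells, proteins quantified by TMT10plex mass spectrometry, three biological replicates, mitosis taken 0.5 h after nocodazole release, G1/S directly after double thymidine block.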

Row | Substance | solubility in G1/S (log2) [1] | melting temperature ([2]; cell cycle stage: G1/S) [°C] | melting temperature ([2]; cell cycle stage: mitosis) [°C] | solubility change mitosis (log2) [3] | thermal stability score [4, 5] | thermal stability score ([4]; cell cycle stage: mitosis)
1 | MEQLRAAARLQIVLGHLGRPSAGAVVAHPTSGTISSASFHPQQFQYTLDNNVLTLEQRKFYEENGFLVIKNLVPDADIQRFRNEFEKICRKEVKPLGLTVMRDVTISKSEYAPSEKMITKVQDFQEDKELFRYCTLPEILKYVECFTGPNIMAMHTMLINKPPDSGKKTSRHPLHQDLHYFPFRPSDLIVCAWTAMEHISRNNGCLVVLPGTHKGSLKPHDYPKWEGGVNKMFHGIQDYEENKARVHLVMEKGDTVFFHPLLIHGSGQNKTQGFRKAISCHFASADCHYIDVKGTSQENIEKEVVGIAHKFFGAENSVNLKDIWMFRARLVKGERTNL [PHYH] | 0.298 | 51.6 | 52.4 | -0.191 | 2.97 | 2.13
2 | MQALRHVVCALSGGVDSAVAALLLRRRGYQVTGVFMKNWDSLDEHGVCTADKDCEDAYRVCQILDIPFHQVSYVKEYWNDVFSDFLNEYEKGRTPNPDIVCNKHIKFSCFFHYAVDNLGADAIATGHYARTSLEDEEVFEQKHVKKPEGLFRNRFEVRNAVKLLQAADSFKDQTFFLSQVSQDALRRTIFPLGGLTKEFVKKIAAENRLHHVLQKKESMGMCFIGKRNFEHFLLQYLQPRPGHFISIEDNKVLGTHKGWFLYTLGQRANIGGLREPWYVVEKDSVKGDVFVAPRTDHPALYRDLLRTSRVHWIAEEPPAALVRDKMMECHFRFRHQMALVPCVLTLNQDGTVWVTAVQAVRALATGQFAVFYKGDECLGSGKILRLGPSAYTLQKGQRRAGMATESPSDSPEDGPGLSPLL [TRMU] | -0.242 | 50.7 | 51.1 | -0.134 | 0.5 | 0.388
3 | MLKAVILIGGPQKGTRFRPLSFEVPKPLFPVAGVPMIQHHIEACAQVPGMQEILLIGFYQPDEPLTQFLEAAQQEFNLPVRYLQEFAPLGTGGGLYHFRDQILAGSPEAFFVLNADVCSDFPLSAMLEAHRRQRHPFLLLGTTANRTQSLNYGCIVENPQTHEVLHYVEKPSTFISDIINCGIYLFSPEALKPLRDVFQRNQQDGQLEDSPGLWPGAGTIRLEQDVFSALAGQGQIYVHLTDGIWSQIKSAGSALYASRLYLSRYQDTHPERLAKHTPGGPWIRGNVYIHPTAKVAPSAVLGPNVSIGKGVTVGEGVRLRESIVLHGATLQEHTCVLHSIVGWGSTVGRWARVEGTPSDPNPNDPRARMDSESLFKDGKLLPAITILGCRVRIPAEVLILNSIVLPHKELSRSFTNQIIL [GMPPA] | 0.0728 | 54.4 | 53 | -0.00526 | 0.0726 | -3.01
4 | MPHLPLASFRPPFWGLRHSRGLPRFHSVSTQSEPHGSPISRRNREAKQKRLREKQATLEAEIAGESKSPAESIKAWRPKELVLYEIPTKPGEKKDVSGPLPPAYSPRYVEAAWYPWWVREGFFKPEYQARLPQATGETFSMCIPPPNVTGSLHIGHALTVAIQDALVRWHRMRGDQVLWVPGSDHAGIATQAVVEKQLWKERGVRRHELSREAFLREVWQWKEAKGGEICEQLRALGASLDWDRECFTMDVGSSVAVTEAFVRLYKAGLLYRNHQLVNWSCALRSAISDIEVENRPLPGHTQLRLPGCPTPVSFGLLFSVAFPVDGEPDAEVVVGTTRPETLPGDVAVAVHPDDSRYTHLHGRQLRHPLMGQPLPLITDYAVQPHVGTGAVKVTPAHSPADAEMGARHGLSPLNVIAEDGTMTSLCGDWLQGLHRFVAREKIMSVLSEWGLFRGLQNHPMVLPICSRSGDVIEYLLKNQWFVRCQEMGARAAKAVESGALELSPSFHQKNWQHWFSHIGDWCVSRQLWWGHQIPAYLVVEDHAQGEEDCWVVGRSEAEAREVAAELTGRPGAELTLERDPDVLDTWFSSALFPFSALGWPQETPDLARFYPLSLLETGSDLLLFWVGRMVMLGTQLTGQLPFSKVLLHPMVRDRQGRKMSKSLGNVLDPRDIISGVEMQVLQEKLRSGNLDPAELAIVAAAQKKDFPHGIPECGTDALRFTLCSHGVQAGDLHLSVSEVQSCRHFCNKIWNALRFILNALGEKFVPQPAEELSPSSPMDAWILSRLALAAQECERGFLTRELSLVTHALHHFWLHNLCDVYLEAVKPVLWHSPRPLGPPQVLFSCADLGLRLLAPLMPFLAEELWQRLPPRPGCPPAPSISVAPYPSACSLEHWRQPELERRFSRVQEVVQVLRALRATYQLTKARPRVLLQSSEPGDQGLFEAFLEPLGTLGYCGAVGLLPPGAAAPSGWAQAPLSDTAQVYMELQGLVDPQIQLPLLAARRYKLQKQLDSLTARTPSEGEAGTQRQQKLSSLQLELSKLDKAASHLRQLMDEPPAPGSPEL [VARS2] | -0.0605 | 52 | 52.1 | 0.0161 | 0.335 | 0.452
5 | MFLTRSEYDRGVNTFSPEGRLFQVEYAIEAIKLGSTAIGIQTSEGVCLAVEKRITSPLMEPSSIEKIVEIDAHIGCAMSGLIADAKTLIDKARVETQNHWFTYNETMTVESVTQAVSNLALQFGEEDADPGAMSRPFGVALLFGGVDEKGPQLFHMDPSGTFVQCDARAIGSASEGAQSSLQEVYHKSMTLKEAIKSSLIILKQVMEEKLNATNIELATVQPGQNFHMFTKEELEEVIKDI [PSMA5] | 0.313 | 55.4 | 53.9 | -0.0172 | 1.94 | 2.76
6 | MAEAPPVSGTFKFNTDAAEFIPQEKKNSGLNCGTQRRLDSNRIGRRNYSSPPPCHLSRQVPYDEISAVHQHSYHPSGSKPKSQQTSFQSSPCNKSPKSHGLQNQPWQKLRNEKHHIRVKKAQSLAEQTSDTAGLESSTRSESGTDLREHSPSESEKEVVGADPRGAKPKKATQFVYSYGRGPKVKGKLKCEWSNRTTPKPEDAGPESTKPVGVFHPDSSEASSRKGVLDGYGARRNEQRRYPQKRPPWEVEGARPRPGRNPPKQEGHRHTNAGHRNNMGPIPKDDLNERPAKSTCDSENLAVINKSSRRVDQEKCTVRRQDPQVVSPFSRGKQNHVLKNVETHTGSLIEQLTTEKYECMVCCELVRVTAPVWSCQSCYHVFHLNCIKKWARSPASQADGQSGWRCPACQNVSAHVPNTYTCFCGKVKNPEWSRNEIPHSCGEVCRKKQPGQDCPHSCNLLCHPGPCPPCPAFMTKTCECGRTRHTVRCGQAVSVHCSNPCENILNCGQHQCAELCHGGQCQPCQIILNQVCYCGSTSRDVLCGTDVGKSDGFGDFSCLKICGKDLKCGNHTCSQVCHPQPCQQCPRLPQLVRCCPCGQTPLSQLLELGSSSRKTCMDPVPSCGKVCGKPLPCGSLDFIHTCEKLCHEGDCGPCSRTSVISCRCSFRTKELPCTSLKSEDATFMCDKRCNKKRLCGRHKCNEICCVDKEHKCPLICGRKLRCGLHRCEEPCHRGNCQTCWQASFDELTCHCGASVIYPPVPCGTRPPECTQTCARVHECDHPVYHSCHSEEKCPPCTFLTQKWCMGKHEFRSNIPCHLVDISCGLPCSATLPCGMHKCQRLCHKGECLVDEPCKQPCTTPRADCGHPCMAPCHTSSPCPVTACKAKVELQCECGRRKEMVICSEASSTYQRIAAISMASKITDMQLGGSVEISKLITKKEVHQARLECDEECSALERKKRLAEAFHISEDSDPFNIRSSGSKFSDSLKEDARKDLKFVSDVEKEMETLVEAVNKGKNSKKSHSFPPMNRDHRRIIHDLAQVYGLESVSYDSEPKRNVVVTAIRGKSVCPPTTLTGVLEREMQARPPPPIPHHRHQSDKNPGSSNLQKITKEPIIDYFDVQD [NFX1] | -0.786 | 50.5 | 50.3 | 0.35 | 1.02 | 0.0215
7 | MDARWWAVVVLAAFPSLGAGGETPEAPPESWTQLWFFRFVVNAAGYASFMVPGYLLVQYFRRKNYLETGRGLCFPLVKACVFGNEPKASDEVPLAPRTEAAETTPMWQALKLLFCATGLQVSYLTWGVLQERVMTRSYGATATSPGERFTDSQFLVLMNRVLALIVAGLSCVLCKQPRHGAPMYRYSFASLSNVLSSWCQYEALKFVSFPTQVLAKASKVIPVMLMGKLVSRRSYEHWEYLTATLISIGVSMFLLSSGPEPRSSPATTLSGLILLAGYIAFDSFTSNWQDALFAYKMSSVQMMFGVNFFSCLFTVGSLLEQGALLEGTRFMGRHSEFAAHALLLSICSACGQLFIFYTIGQFGAAVFTIIMTLRQAFAILLSCLLYGHTVTVVGGLGVAVVFAALLLRVYARGRLKQRGKKAVPVESPVQKV [SLC35B2] | 0.112 | 54.9 | 56.3 | -0.177 | -0.147 | 1.08
8 | ERH | -2.12 | 52.5 | 51.6 | 0.912 | -4.51 | -3.17
9 | MAAPSPSGGGGSGGGSGSGTPGPVGSPAPGHPAVSSMQGKRKALKLNFANPPFKSTARFTLNPNPTGVQNPHIERLRTHSIESSGKLKISPEQHWDFTAEDLKDLGEIGRGAYGSVNKMVHKPSGQIMAVKRIRSTVDEKEQKQLLMDLDVVMRSSDCPYIVQFYGALFREGDCWICMELMSTSFDKFYKYVYSVLDDVIPEEILGKITLATVKALNHLKENLKIIHRDIKPSNILLDRSGNIKLCDFGISGQLVDSIAKTRDAGCRPYMAPERIDPSASRQGYDVRSDVWSLGITLYELATGRFPYPKWNSVFDQLTQVVKGDPPQLSNSEEREFSPSFINFVNLCLTKDESKRPKYKELLKHPFILMYEERAVEVACYVCKILDQMPATPSSPMYVD [MAP2K4] | 0.456 | 50.7 | 51.5 | 0.0151 | 0.539 | 0.431
10 | MRVAVAGCCHGELDKIYETLALAERRGPGPVDLLLCCGDFQAVRNEADLRCMAVPPKYRHMQTFYRYYSGEKKAPVLTLFIGGNHEASNHLQELPYGGWVAPNIYYLGLAGVVKYRGVRIGGISGIFKSHDYRKGHFECPPYNSSTIRSIYHVRNIEVYKLKQLKQPIDIFLSHDWPRSIYHYGNKKQLLKTKSFFRQEVENNTLGSPAASELLEHLKPTYWFSAHLHVKFAALMQHQAKDKGQTARATKFLALDKCLPHRDFLQILEIEHDPSAPDYLEYDIEWLTILRATDDLINVTGRLWNMPENNGLHARWDYSATEEGMKEVLEKLNHDLKVPCNFSVTAACYDPSKPQTQMQLIHRINPQTTEFCAQLGIIDINVRLQKSKEEHHVCGEYEEQDDVESNDSGEDQSEYNTDTSALSSINPDEIMLDEEEDEDSIVSAHSGMNTPSVEPSDQASEFSASFSDVRILPGSMIVSSDDTVDSTIDREGKPGGTVESGNGEDLTKVPLKRLSDEHEPEQRKKIKRRNQAIYAAVDDDDDDAA [DBR1] | -0.0568 | 54 | 55.1 | -0.212 | 1.33 | 3.28
11 | MAASALYACTKCTQRYPFEELSQGQQLCKECRIAHPIVKCTYCRSEFQQESKTNTICKKCAQNVKQFGTPKPCQYCNIIAAFIGTKCQRCTNSEKKYGPPQTCEQCKQQCAFDRKEEGRRKVDGKLLCWLCTLSYKRVLQKTKEQRKSLGSSHSNSSSSSLTEKDQHHPKHHHHHHHHHHRHSSSHHKISNLSPEEEQGLWKQSHKSSATIQNETPKKKPKLESKPSNGDSSSINQSADSGGTDNFVLISQLKEEVMSLKRLLQQRDQTILEKDKKLTELKADFQYQESNLRTKMNSMEKAHKETVEQLQAKNRELLKQVAALSKGKKFDKSGSILTSP [FAM76B] | -0.529 |  | 51.3 | 0.486 | -0.509 | 0.107
12 | MGMWASLDALWEMPAEKRIFGAVLLFSWTVYLWETFLAQRQRRIYKTTTHVPPELGQIMDSETFEKSRLYQLDKSTFSFWSGLYSETEGTLILLFGGIPYLWRLSGRFCGYAGFGPEYEITQSLVFLLLATLFSALTGLPWSLYNTFVIEEKHGFNQQTLGFFMKDAIKKFVVTQCILLPVSSLLLYIIKIGGDYFFIYAWLFTLVVSLVLVTIYADYIAPLFDKFTPLPEGKLKEEIEVMAKSIDFPLTKVYVVEGSKRSSHSNAYFYGFFKNKRIVLFDTLLEEYSVLNKDIQEDSGMEPRNEEEGNSEEIKAKVKNKKQGCKNEEVLAVLGHELGHWKLGHTVKNIIISQMNSFLCFFLFAVLIGRKELFAAFGFYDSQPTLIGLLIIFQFIFSPYNEVLSFCLTVLSRRFEFQADAFAKKLGKAKDLYSALIKLNKDNLGFPVSDWLFSMWHYSHPPLLERLQALKTMKQH [ZMPSTE24] | -0.147 | 55.2 | 54.4 | -0.171 | -0.261 | -0.906
